Experimental data published in US20100035814A1 (Novo Nordisk, published 2010).
Like-named read-outs stand apart in the source and are kept apart here.

Legend:
[1] = biological target: T1, hPRLR on stably transfected BaF/3 cells (human, UniProt P16471 25-622); test: cell-based or functional assay
T1 sequence (looked up): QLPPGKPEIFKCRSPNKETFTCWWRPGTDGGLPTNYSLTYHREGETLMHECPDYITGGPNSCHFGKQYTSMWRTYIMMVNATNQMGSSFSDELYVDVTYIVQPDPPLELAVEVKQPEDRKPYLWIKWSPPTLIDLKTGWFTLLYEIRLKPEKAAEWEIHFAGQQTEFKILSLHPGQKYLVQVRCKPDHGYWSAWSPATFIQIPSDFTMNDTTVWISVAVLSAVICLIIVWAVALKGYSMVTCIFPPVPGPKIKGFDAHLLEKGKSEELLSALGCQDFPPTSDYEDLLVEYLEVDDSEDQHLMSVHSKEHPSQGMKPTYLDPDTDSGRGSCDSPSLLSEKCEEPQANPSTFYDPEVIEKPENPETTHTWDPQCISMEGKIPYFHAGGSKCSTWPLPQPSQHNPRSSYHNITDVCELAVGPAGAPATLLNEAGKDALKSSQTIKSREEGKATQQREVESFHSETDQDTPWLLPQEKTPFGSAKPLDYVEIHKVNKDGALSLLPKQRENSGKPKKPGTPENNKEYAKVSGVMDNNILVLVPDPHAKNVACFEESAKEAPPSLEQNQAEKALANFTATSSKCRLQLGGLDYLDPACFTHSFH

[2] = biological target: T1, hPRLR on stably transfected BaF/3 cells; test: cell-based or functional assay; remark: listed apart in the source
[3] = biological target: T2, soluble form of the PRL receptor (UniProt P16471 25-234, limits assumed); test: SPR (Biacore 3000), soluble PRL receptor amine-coupled to CM5 chip, prolactin molecule injected at 500 nM
T2 construct: extracellular domain; It gives no residues, tag or species; also called prolactin receptor; immobilized receptor
T2 sequence (looked up): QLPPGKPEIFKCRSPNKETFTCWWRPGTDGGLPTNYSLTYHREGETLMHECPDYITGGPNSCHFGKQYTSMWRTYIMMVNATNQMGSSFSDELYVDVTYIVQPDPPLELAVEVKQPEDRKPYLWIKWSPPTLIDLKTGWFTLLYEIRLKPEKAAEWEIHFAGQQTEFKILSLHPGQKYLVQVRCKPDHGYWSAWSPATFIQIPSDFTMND
Procedure: The soluble form of the PRL receptor (25 μg/ml in 10 mM sodium acetate, pH 3.0) was injected into a Biacore 3000 instrument at a flow rate of 5 μl/min and coupled to a CM5 sensor chip by amine coupling chemistry. […] Data evaluation was performed in BiaEvaluation 4.1. Regeneration was accomplished with 4.5 M MgCl₂ between runs.
Using the assay as described in Example 8, the binding of N-terminally pegylated versions of the prolactin antagonist PRL(12-199) Q12S G129R to the prolactin receptor was determined.

B1: Ser PRL S33A Q73L G129R K190R (ligand)
chain: SLPICPGGAARCQVTLRDLFDRAVVLSHYIHNLASEMFSEFDKRYTHGRGFITKAINSCHTSSLATPEDKEQALQMNQKDFLSLIVSILRSWNEPLYHLVTEVRGMQEAPEAILSKAVEIEEQTKRLLERMELIVSQVHPETKENEIYPVWSGLPSLQMADEESRLSAYYNLLHCLRRDSHKIDNYLKLLRCRIIHNNNC
In the case of B1, the “EC50 of PRL in the presence of 1 µM Ser PRL S33A Q73L G129R K190R, proliferation of BaF/3 cells stably transfected with hPRLR” value [1] is reported as 531 nM.

B2: N^alpha1-(3-(20 kDa-mPEGyl)propyl) Ser PRL S33A Q73L G129R K190R (ligand)
chain: SLPICPGGAARCQVTLRDLFDRAVVLSHYIHNLASEMFSEFDKRYTHGRGFITKAINSCHTSSLATPEDKEQALQMNQKDFLSLIVSILRSWNEPLYHLVTEVRGMQEAPEAILSKAVEIEEQTKRLLERMELIVSQVHPETKENEIYPVWSGLPSLQMADEESRLSAYYNLLHCLRRDSHKIDNYLKLLRCRIIHNNNC
modifications: N-terminal alpha-amino group (N^alpha1, of the added serine) alkylated with 3-(20 kDa mPEGyl)propyl by reductive amination
For B2, the “EC50 of PRL in the presence of 1 µM Ser PRL S33A Q73L G129R K190R PEG20k, proliferation of BaF/3 cells stably transfected with hPRLR” value [1] was 19 nM.

B3: PRL(12-199) Q12S G129R (ligand)
chain: SVTLRDLFDRAVVLSHYIHNLSSEMFSEFDKRYTHGRGFITKAINSCHTSSLATPEDKEQAQQMNQKDFLSLIVSILRSWNEPLYHLVTEVRGMQEAPEAILSKAVEIEEQTKRLLERMELIVSQVHPETKENEIYPVWSGLPSLQMADEESRLSAYYNLLHCLRRDSHKIDNYLKLLKCRIIHNNNC
In the case of B3, the “EC50 of PRL in the presence of 1 µM PRL(12-199) Q12S G129R, proliferation of BaF/3 cells stably transfected with hPRLR” value [1] is reported as 40 nM.

B4: PRL wildtype (ligand)
chain: LPICPGGAARCQVTLRDLFDRAVVLSHYIHNLSSEMFSEFDKRYTHGRGFITKAINSCHTSSLATPEDKEQAQQMNQKDFLSLIVSILRSWNEPLYHLVTEVRGMQEAPEAILSKAVEIEEQTKRLLEGMELIVSQVHPETKENEIYPVWSGLPSLQMADEESRLSAYYNLLHCLRRDSHKIDNYLKLLKCRIIHNNNC
notes: also called wtPRL; human prolactin
In the case of B4, the “EC50, proliferation (AlamarBlue) of BaF/3 cells stably transfected with hPRLR” value [1] is reported as 0.15 nM, the “EC50, proliferation (AlamarBlue) of BaF/3 cells stably transfected with hPRLR” value [2] is reported as 0.15 nM and the Kd [3] is reported as 32 nM.

B5: PRL S61A G129R (ligand)
chain: LPICPGGAARCQVTLRDLFDRAVVLSHYIHNLSSEMFSEFDKRYTHGRGFITKAINSCHTASLATPEDKEQAQQMNQKDFLSLIVSILRSWNEPLYHLVTEVRGMQEAPEAILSKAVEIEEQTKRLLERMELIVSQVHPETKENEIYPVWSGLPSLQMADEESRLSAYYNLLHCLRRDSHKIDNYLKLLKCRIIHNNNC
B5 was tested, and the “EC50 of PRL in the presence of 1 µM PRL S61A G129R, proliferation of BaF/3 cells stably transfected with hPRLR” value [2] was 116 nM.

B6: N^alpha1-(3-(20 kDa-mPEGyl)propyl)PRL S61 G129R ("PRL S61A G129R PEG20k") (ligand)
chain: LPICPGGAARCQVTLRDLFDRAVVLSHYIHNLSSEMFSEFDKRYTHGRGFITKAINSCHTASLATPEDKEQAQQMNQKDFLSLIVSILRSWNEPLYHLVTEVRGMQEAPEAILSKAVEIEEQTKRLLERMELIVSQVHPETKENEIYPVWSGLPSLQMADEESRLSAYYNLLHCLRRDSHKIDNYLKLLKCRIIHNNNC
modifications: N-terminal alpha-amino group (N^alpha1) alkylated with 3-(20 kDa mPEGyl)propyl by reductive amination
With B6 the “EC50 of PRL in the presence of 1 µM PRL S61A G129R PEG20k, proliferation of BaF/3 cells stably transfected with hPRLR” value [2] was 4.6 nM and the Kd [3] was 71 nM.

B7: N^alpha,13((4-(2-Methyl-4-(10 kDa mPEGyloxy)butanoylamino)butoxy)imino)acetyl G129R-PRL(13-199) (E2) (ligand)
chain: VTLRDLFDRAVVLSHYIHNLSSEMFSEFDKRYTHGRGFITKAINSCHTSSLATPEDKEQAQQMNQKDFLSLIVSILRSWNEPLYHLVTEVRGMQEAPEAILSKAVEIEEQTKRLLERMELIVSQVHPETKENEIYPVWSGLPSLQMADEESRLSAYYNLLHCLRRDSHKIDNYLKLLKCRIIHNNNC
modifications: alpha-amino group of residue 13 carries ((4-(2-methyl-4-(10 kDa mPEGyloxy)butanoylamino)butoxy)imino)acetyl (oxime formed on the periodate-oxidised N-terminal serine of N^alpha,13-seryl G129R-PRL(13-199))
notes: also called N-terminally pegylated PRL(12-199) Q12S G129R (10 kDa PEG)
In the case of B7, the Kd [3] is reported as 55 nM.

B8: N^alpha,13((4-(3-(5 kDa mPEGyloxy)propionylamino)butoxy)imino)acetyl G129R-PRL(13-199) (E4) (ligand)
chain: VTLRDLFDRAVVLSHYIHNLSSEMFSEFDKRYTHGRGFITKAINSCHTSSLATPEDKEQAQQMNQKDFLSLIVSILRSWNEPLYHLVTEVRGMQEAPEAILSKAVEIEEQTKRLLERMELIVSQVHPETKENEIYPVWSGLPSLQMADEESRLSAYYNLLHCLRRDSHKIDNYLKLLKCRIIHNNNC
modifications: alpha-amino group of residue 13 carries ((4-(3-(5 kDa mPEGyloxy)propionylamino)butoxy)imino)acetyl (oxime formed on the periodate-oxidised N-terminal serine of N^alpha,13-seryl G129R-PRL(13-199))
notes: also called N-terminally pegylated PRL(12-199) Q12S G129R (5 kDa PEG)
B8 showed a Kd [3] of 42 nM.

B9: N^alpha,13((4-(4-(20 kDa mPEGyloxy)butanoylamino)butoxy)imino)acetyl G129R-PRL(13-199) (E3) (ligand)
chain: VTLRDLFDRAVVLSHYIHNLSSEMFSEFDKRYTHGRGFITKAINSCHTSSLATPEDKEQAQQMNQKDFLSLIVSILRSWNEPLYHLVTEVRGMQEAPEAILSKAVEIEEQTKRLLERMELIVSQVHPETKENEIYPVWSGLPSLQMADEESRLSAYYNLLHCLRRDSHKIDNYLKLLKCRIIHNNNC
modifications: alpha-amino group of residue 13 carries ((4-(4-(20 kDa mPEGyloxy)butanoylamino)butoxy)imino)acetyl (oxime formed on the periodate-oxidised N-terminal serine of N^alpha,13-seryl G129R-PRL(13-199))
notes: also called N-terminally pegylated PRL(12-199) Q12S G129R (20 kDa PEG)
B9 gave a Kd [3] of 70 nM.
